Measured values taken from patent publication US20170362317A1.

Target: IL6 receptor on human multiple myeloma U266 cells (human) (UniProt P08887)
Experiment: cell-based or functional assay

Chain of IL6 receptor on human multiple myeloma U266 cells (human) (P08887 20-468): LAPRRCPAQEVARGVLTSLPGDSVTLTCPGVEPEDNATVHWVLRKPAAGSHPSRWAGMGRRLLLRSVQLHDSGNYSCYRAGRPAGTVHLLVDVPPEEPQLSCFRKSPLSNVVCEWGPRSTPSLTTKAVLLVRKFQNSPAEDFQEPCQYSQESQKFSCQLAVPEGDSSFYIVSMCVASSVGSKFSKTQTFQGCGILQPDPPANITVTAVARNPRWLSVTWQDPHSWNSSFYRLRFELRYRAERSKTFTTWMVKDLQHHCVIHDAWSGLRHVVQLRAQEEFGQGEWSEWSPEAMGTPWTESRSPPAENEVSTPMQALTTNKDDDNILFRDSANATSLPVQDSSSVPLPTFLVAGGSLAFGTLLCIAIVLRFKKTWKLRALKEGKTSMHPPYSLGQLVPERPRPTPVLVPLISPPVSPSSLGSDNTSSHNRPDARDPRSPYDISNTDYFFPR

inhibition percentage of control of STAT3 phosphorylation in U266 cells, antibody at 0.05 µg/ml: 0%
inhibition percentage of control of STAT3 phosphorylation in U266 cells, antibody at 0.5 µg/ml: 17%
Substance: Actemra, an anti-IL6 receptor humanized antibody
